Data on 125 sequences can be found in the supplement of paper PMC9112550, “Optimization of the antimicrobial peptide Bac7 by deep mutational scanning” (BMC Biology, 2022).
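Note: peptides expressed intracellularly from a pBAD plasmid library in pooled LB shake-flask culture, induced with 0.3% L-arabinose, DNA abundance read by NGS, three biological replicates, DESeq2 with apeglm shrinkage.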

The data set has as its system Escherichia coli TOP10. The data set is described as follows: shrunken log2 fold change of peptide-encoding DNA abundance (4.5 h post-induction vs induction); higher = less antimicrobial activity (less host growth inhibition). To be noted: time post-induction: 4.5 h; library: site-saturation at positions 5, 18, 19, 20.
Consider RRIRHRPPRLPRPRPRPMFIPRP, for which the “shrunken log2 fold change” value was -0.0886. In the case of RRIRLRPPRLPRPRPRPWIQPRP, the “shrunken log2 fold change” value was -0.355. Regarding RRIRGRPPRLPRPRPRPQPGPRP, the “shrunken log2 fold change” value was 0.606. For the sequence RRIRFRPPRLPRPRPRPCYTPRP, the “shrunken log2 fold change” value was -0.239. As for RRIRVRPPRLPRPRPRPQDDPRP, the figure is -0.006. Take RRIRERPPRLPRPRPRPECMPRP: the “shrunken log2 fold change” value was -0.0491.

On to RRIRPRPPRLPRPRPRPCMPPRP, for which the “shrunken log2 fold change” value was -0.534.

As to RRIRYRPPRLPRPRPRPAVGPRP, the “shrunken log2 fold change” value was 0.0398. RRIRTRPPRLPRPRPRPRLFPRP: the “shrunken log2 fold change” value is 0.207. Under RRIRARPPRLPRPRPRPKHVPRP stands 0.0861; under RRIRCRPPRLPRPRPRPCWTPRP, -0.223; under RRIRVRPPRLPRPRPRPMAWPRP, -0.114. On to RRIRDRPPRLPRPRPRPEVAPRP, for which the “shrunken log2 fold change” value came out at 0.563. For the sequence RRIRSRPPRLPRPRPRPLHHPRP, the “shrunken log2 fold change” value was -0.465. Take RRIRDRPPRLPRPRPRPVRYPRP: the “shrunken log2 fold change” value was 0.152. Regarding RRIRPRPPRLPRPRPRPHHQPRP, the “shrunken log2 fold change” value is -0.399. As for RRIRVRPPRLPRPRPRPPWNPRP, the figure is 0.0143; as for RRIRGRPPRLPRPRPRPNLEPRP, 0.678; as for RRIRPRPPRLPRPRPRPQRVPRP, 0.202. RRIRRRPPRLPRPRPRPVHNPRP: the “shrunken log2 fold change” value turned out to be 0.0641. As for RRIRYRPPRLPRPRPRPYNIPRP, the “shrunken log2 fold change” value is -0.426. For RRIRFRPPRLPRPRPRPKWTPRP, the “shrunken log2 fold change” value is -0.196. Under RRIRARPPRLPRPRPRPLGGPRP stands 1.01. Take RRIRPRPPRLPRPRPRPHILPRP: the “shrunken log2 fold change” value was -0.381. Under RRIRKRPPRLPRPRPRPNCGPRP stands 0.0611; under RRIRERPPRLPRPRPRPRCLPRP, 0.0247. For the sequence RRIRERPPRLPRPRPRPNDAPRP, the “shrunken log2 fold change” value was -0.19.

On to RRIRKRPPRLPRPRPRPLMVPRP, for which the “shrunken log2 fold change” value amounted to 0.0242. As to RRIRLRPPRLPRPRPRPGSVPRP, the “shrunken log2 fold change” value came out at 0.0433. Under RRIRQRPPRLPRPRPRPKECPRP stands -0.0193. Under RRIRIRPPRLPRPRPRPLWNPRP stands -0.598; under RRIRNRPPRLPRPRPRPAYSPRP, -0.189.

On to RRIRDRPPRLPRPRPRPMMAPRP, for which the “shrunken log2 fold change” value was -0.00174. Regarding RRIRYRPPRLPRPRPRPLYAPRP, the “shrunken log2 fold change” value is -1.49.

In the case of RRIRPRPPRLPRPRPRPNSMPRP, the “shrunken log2 fold change” value is -0.251.

Consider RRIRQRPPRLPRPRPRPIDTPRP, for which the “shrunken log2 fold change” value is -0.216. In the case of RRIRQRPPRLPRPRPRPTRTPRP, the “shrunken log2 fold change” value stood at 1.65.

Take RRIRPRPPRLPRPRPRPMGPPRP: the “shrunken log2 fold change” value was -0.248.

With RRIRFRPPRLPRPRPRPWNYPRP, the “shrunken log2 fold change” value was -0.605. With RRIRTRPPRLPRPRPRPSDWPRP, the “shrunken log2 fold change” value came out at 0.0388.

For the sequence RRIRPRPPRLPRPRPRPSGVPRP, the “shrunken log2 fold change” value was -0.0831. Consider RRIRQRPPRLPRPRPRPFKVPRP, for which the “shrunken log2 fold change” value was -0.00664.

Consider RRIRDRPPRLPRPRPRPFMAPRP, for which the “shrunken log2 fold change” value amounted to 0.035. In the case of RRIRRRPPRLPRPRPRPYRSPRP, the “shrunken log2 fold change” value is -0.0969. For RRIRRRPPRLPRPRPRPALTPRP, the “shrunken log2 fold change” value is 0.258.

Turning to RRIRRRPPRLPRPRPRPWGYPRP, the “shrunken log2 fold change” value was -0.275. As to RRIRFRPPRLPRPRPRPFMKPRP, the “shrunken log2 fold change” value amounted to 1.71. As for RRIRCRPPRLPRPRPRPYMQPRP, the figure is -0.918; as for RRIRWRPPRLPRPRPRPQYAPRP, -0.0905; as for RRIRWRPPRLPRPRPRPEAEPRP, 1.53. On to RRIRARPPRLPRPRPRPFICPRP, for which the “shrunken log2 fold change” value was -0.1. As to RRIRDRPPRLPRPRPRPHVEPRP, the “shrunken log2 fold change” value is -0.109. Under RRIRDRPPRLPRPRPRPCVRPRP stands -0.111.

Consider RRIRARPPRLPRPRPRPGHMPRP, for which the “shrunken log2 fold change” value was -0.0412. Take RRIRYRPPRLPRPRPRPLHFPRP: the “shrunken log2 fold change” value is -0.0434. Consider RRIRMRPPRLPRPRPRPQMQPRP, for which the “shrunken log2 fold change” value was 0.108. Under RRIRKRPPRLPRPRPRPECRPRP stands 0.313; under RRIRLRPPRLPRPRPRPYDVPRP, -0.366. Consider RRIRLRPPRLPRPRPRPNFKPRP, for which the “shrunken log2 fold change” value was -0.206.

On to RRIRGRPPRLPRPRPRPCAGPRP, for which the “shrunken log2 fold change” value stood at 0.834. For RRIRWRPPRLPRPRPRPGWEPRP, the “shrunken log2 fold change” value was determined as 0.292. Turning to RRIRKRPPRLPRPRPRPDSQPRP, the “shrunken log2 fold change” value came out at 0.0697. In the case of RRIRWRPPRLPRPRPRPDGFPRP, the “shrunken log2 fold change” value was -0.0231. RRIRQRPPRLPRPRPRPRMEPRP: the “shrunken log2 fold change” value was -0.194. Take RRIRVRPPRLPRPRPRPDADPRP: the “shrunken log2 fold change” value turned out to be 0.793.

Regarding RRIRPRPPRLPRPRPRPFINPRP, the “shrunken log2 fold change” value was -0.382. RRIRSRPPRLPRPRPRPMMLPRP: the “shrunken log2 fold change” value was determined as 0.15.

Consider RRIRRRPPRLPRPRPRPMFKPRP, for which the “shrunken log2 fold change” value was 0.168. Take RRIRCRPPRLPRPRPRPYHLPRP: the “shrunken log2 fold change” value is -0.0832. As to RRIRKRPPRLPRPRPRPTYPPRP, the “shrunken log2 fold change” value was -0.00526. Consider RRIRKRPPRLPRPRPRPHKYPRP, for which the “shrunken log2 fold change” value is -0.448. RRIRLRPPRLPRPRPRPSTIPRP: the “shrunken log2 fold change” value is -0.246. Under RRIRNRPPRLPRPRPRPECYPRP stands -0.329; under RRIRPRPPRLPRPRPRPRCHPRP, 0.144; under RRIRYRPPRLPRPRPRPFSMPRP, -0.00208.

Regarding RRIRGRPPRLPRPRPRPQCWPRP, the “shrunken log2 fold change” value was determined as 0.623. As for RRIRHRPPRLPRPRPRPSKYPRP, the “shrunken log2 fold change” value was -0.776. Turning to RRIRHRPPRLPRPRPRPPPAPRP, the “shrunken log2 fold change” value came to 1.07. Under RRIRNRPPRLPRPRPRPMGDPRP stands -0.00663. On to RRIRFRPPRLPRPRPRPCYHPRP, for which the “shrunken log2 fold change” value was -0.859. Under RRIRVRPPRLPRPRPRPCEFPRP stands -0.242; under RRIRLRPPRLPRPRPRPTFQPRP, -0.098; under RRIRDRPPRLPRPRPRPMDAPRP, 0.251. Consider RRIRKRPPRLPRPRPRPSKPPRP, for which the “shrunken log2 fold change” value worked out at 0.0859.

RRIRQRPPRLPRPRPRPKPEPRP: the “shrunken log2 fold change” value was -0.0759. On to RRIRKRPPRLPRPRPRPKQQPRP, for which the “shrunken log2 fold change” value is 0.0737. As for RRIRDRPPRLPRPRPRPAHLPRP, the “shrunken log2 fold change” value came out at 0.0723. Consider RRIRYRPPRLPRPRPRPADSPRP, for which the “shrunken log2 fold change” value is -0.212. Under RRIRVRPPRLPRPRPRPITHPRP stands -0.171. As for RRIRMRPPRLPRPRPRPLGDPRP, the “shrunken log2 fold change” value amounted to 0.364.

For the sequence RRIRCRPPRLPRPRPRPMTMPRP, the “shrunken log2 fold change” value was -0.27. On to RRIRLRPPRLPRPRPRPEEHPRP, for which the “shrunken log2 fold change” value amounted to 0.00515.

On to RRIRQRPPRLPRPRPRPPFVPRP, for which the “shrunken log2 fold change” value amounted to 0.0462. Consider RRIRTRPPRLPRPRPRPDIMPRP, for which the “shrunken log2 fold change” value is -0.624.

On to RRIRERPPRLPRPRPRPRDLPRP, for which the “shrunken log2 fold change” value is 0.023. As for RRIRSRPPRLPRPRPRPKMNPRP, the “shrunken log2 fold change” value is -0.163. RRIRERPPRLPRPRPRPTELPRP: the “shrunken log2 fold change” value is -0.577. Consider RRIRCRPPRLPRPRPRPTRFPRP, for which the “shrunken log2 fold change” value came out at 0.696. Consider RRIRIRPPRLPRPRPRPCDDPRP, for which the “shrunken log2 fold change” value was -0.395.

On to RRIRMRPPRLPRPRPRPFAAPRP, for which the “shrunken log2 fold change” value was determined as 0.789. As to RRIRCRPPRLPRPRPRPDARPRP, the “shrunken log2 fold change” value is -0.0562.

With RRIRRRPPRLPRPRPRPECNPRP, the “shrunken log2 fold change” value came to 0.791. For the sequence RRIRFRPPRLPRPRPRPPTEPRP, the “shrunken log2 fold change” value was 0.438. Take RRIRQRPPRLPRPRPRPARDPRP: the “shrunken log2 fold change” value was 0.0373. On to RRIRIRPPRLPRPRPRPCTKPRP, for which the “shrunken log2 fold change” value is -0.151. Turning to RRIRSRPPRLPRPRPRPFHEPRP, the “shrunken log2 fold change” value was -0.263. As for RRIRRRPPRLPRPRPRPKGMPRP, the figure is 0.218. Turning to RRIRLRPPRLPRPRPRPSTQPRP, the “shrunken log2 fold change” value was -0.337. Take RRIRQRPPRLPRPRPRPPRRPRP: the “shrunken log2 fold change” value turned out to be 0.852. For RRIRRRPPRLPRPRPRPDNYPRP, the “shrunken log2 fold change” value was -0.323. In the case of RRIRFRPPRLPRPRPRPFTDPRP, the “shrunken log2 fold change” value was -0.0297. Consider RRIRYRPPRLPRPRPRPTRQPRP, for which the “shrunken log2 fold change” value was -0.00287. For the sequence RRIRARPPRLPRPRPRPQRTPRP, the “shrunken log2 fold change” value was determined as 0.11. Regarding RRIRHRPPRLPRPRPRPLASPRP, the “shrunken log2 fold change” value was -0.0121. As for RRIRVRPPRLPRPRPRPALAPRP, the figure is 0.484; as for RRIRFRPPRLPRPRPRPVNPPRP, -0.154.

In the case of RRIRTRPPRLPRPRPRPTHPPRP, the “shrunken log2 fold change” value stood at 0.312. On to RRIRNRPPRLPRPRPRPCYMPRP, for which the “shrunken log2 fold change” value amounted to 0.0787. In the case of RRIRKRPPRLPRPRPRPCASPRP, the “shrunken log2 fold change” value was determined as 0.0419. For RRIRFRPPRLPRPRPRPLEYPRP, the “shrunken log2 fold change” value was -0.474. For the sequence RRIRVRPPRLPRPRPRPHNSPRP, the “shrunken log2 fold change” value is -0.23. Take RRIRRRPPRLPRPRPRPSVQPRP: the “shrunken log2 fold change” value was determined as 0.184.

Consider RRIRERPPRLPRPRPRPLEFPRP, for which the “shrunken log2 fold change” value is -0.542. Under RRIRHRPPRLPRPRPRPCPAPRP stands -0.231; under RRIRLRPPRLPRPRPRPQARPRP, 0.169.
